The target of assay [1] is Bombyx mori cadherin-like protein BtR175 (Bombyx mori (endogenous in larval midgut)).
For assay [2] the target is unchanged. Nature of the assay: SPR; receptors (100-200 ng) amine-coupled to a CM5 chip; toxin 100-1000 nM injected in HBS pH 7.4 (10 mM Hepes, 150 mM NaCl, 3.4 mM EDTA) at 50 ul/min; blank flowcell subtracted; 1:1 Langmuir fit; apparent rate constants. (SPR reads the build-up and loss of mass on a sensor chip optically.)
The target in assay [3] is T1, Bacillus thuringiensis Cry1Aa insecticidal protein, wild type, trypsin-activated toxin (Bacillus thuringiensis, UniProt P0A366 1-1176).
T1 construct: trypsin-resistant 65 kDa toxin cut from the solubilized protoxin; also called Cry1Aa (Wt); Cry1Aa wt; source: E. coli MV1190 containing pBN-1Aa; crystal inclusion bodies solubilized, trypsin-digested, purified (Superdex 200, monomeric fraction)
The description is as above. To be noted: both partners purified.

These results are taken from paper PMC2245940, “Blocking binding of Bacillus thuringiensis Cry1Aa to Bombyx mori cadherin receptor results in only a minor reduction of toxicity” (BMC Biochemistry, 2008).

One may read the koff as the first-order rate constant of dissociation. By kon is commonly meant the rate constant with which the complex forms.

Molecule “Cry1Aa mutant toxin F328A, trypsin-activated (from UniProt P0A366 1-1176) (natural protein)” had an LC50 against B. mori larvae (surface contamination bioassay, mortality after 5 days) in assay [1] of 41.5 ng/ccm. Also, in assay [2], the Kd is 60.7 nM, the off-rate constant (koff) was determined as 9.1e-05 s⁻¹ and the kon is 1500 M⁻¹ s⁻¹.
“Bacillus thuringiensis Cry1Aa insecticidal protein, wild type, trypsin-activated toxin (from UniProt P0A366 1-1176) (natural protein)”: in assay [2], the Kd came out at 2.6 nM, the koff amounted to 3.3e-05 s⁻¹ and the on-rate constant (kon) was determined as 13000 M⁻¹ s⁻¹.

B1: Bombyx mori aminopeptidase N (receptor)
chain: LSPIPVPEDEWVEFARMLRDPAFRLPTTTRPRHYQVTLTPYFDVVPANVNPFTFDGEVTIYTSPTVANVNEVVIHCNDLTIQSLSIGYQSGTNVVDITATGQTFACEMPFSFLRIRTTEALVLNREYIIKSTFRGNLQTNMRGFYRSWYVDSTGRRWMGTTQFQPGHARQAFPCYDEPGFKATFDITMNREESFSPTISNMPIRTTNTLANGRVSETFWTTPVTSTYLLAFIVSHYTVVSTNNNALRPFDIYARNNVGRTGDWSLEIGEKLLEAMEAYTQIPYYTMAENINMKQAAIPDFSAGAMENWGLLTYREALILYDPLNSNHFYKQRVANIVAHEIAHMWFGNLVTCAWWDNLWLNEGFARFYQYYLTASVAPELGYETRFIVEQVQMAMFSDSVDTAHALTDLNVNDPTTVSAHFSTITYARGAAILRMTQHLLGVETFVKGLRNYLRERQFNVAEPHHLFTALDAAAVEDGALNGYGGITIDTYFRTWSEKAGHPLLTVTINQRTGEMIVTQERWERNTGVSQFPSLWHIPITWTRAGAPEFEDLKPSQFISQQVTSINRGTTGLEWVIFNKQEAGFYRVNYDDTNWALLTRALRSSSRTAIHQLNRAQIVDDIFQLARANVMKYNRAFNILSFLQFEDEYAPWLAAISGFNFLIRRLAHDSTNAALLQKLILELSPAVVAKLGYLEPENGSYMTDLQRMYVMEFLCNVGHEECNNFGTQAFRRWSTGTFIPANMRPWVYCAGLRHGTAEDFNFFWNRYLQEDLSSEKVVMLNVAGCTTDQASLNRFLDAIVSGNDDIRPQDYNAALTSAITSNEINTLRAFQWLRNNVDQATRTLGSVSTILNTIIGRLLNEEQINEVSNWLTANQNTLGATYSTALRAIETTRSNLVWSQQRISEFTNYFESGYVEDVIEEITEAPPTAPPTAPPTEAPAVTPAPDSANVAALSFITLIITLAVNLA
As to B1, in assay [3], the Kd is 75 nM, the koff amounted to 0.0015 s⁻¹ and the on-rate constant (kon) was 21000 M⁻¹ s⁻¹.
